Results taken from patent US20250034250A1 (published 2025).
Changes are numbered by the printed parent chain.

How the values were obtained:
[1] = target: T1, extracellular domain of CD33^FL with a 6-histidine-avidin tag (hsCD33-His-Avi) (human, UniProt P20138 18-256); experiment: Biacore SPR, purified antibody and corresponding soluble ectodomain
T1 construct: The Biacore text says only 'the corresponding soluble ectodomains'; it includes the native signal peptide and the His-Avi tag, and no limits are stated on it; also called soluble CD33^FL ectodomain; MDT000235
Description: (§1) FIGS. 4A-4C illustrate the expression (FIGS. 4A, 4B) and characterization of two CD33^FL specific (8F5 and 5D12) and one CD33^ΔE2 specific (12B12) antibodies. Affinities for these antibodies (shown in FIG. 4C) were characterized by Biacore (Biacore, A&G Pharmaceutical, Inc., Columbia, MD) using purified antibodies and the corresponding soluble ectodomains.

[2] = target: T2, human full-length CD33 (CD33^FL) expressed on cells (human, UniProt P20138 18-364); experiment: flow cytometry on REH cells, legend of FIG. 7
T2 construct: Expressed on engineered REH (or RS4;11) sublines
T2 sequence (P20138 18-364 limits assumed): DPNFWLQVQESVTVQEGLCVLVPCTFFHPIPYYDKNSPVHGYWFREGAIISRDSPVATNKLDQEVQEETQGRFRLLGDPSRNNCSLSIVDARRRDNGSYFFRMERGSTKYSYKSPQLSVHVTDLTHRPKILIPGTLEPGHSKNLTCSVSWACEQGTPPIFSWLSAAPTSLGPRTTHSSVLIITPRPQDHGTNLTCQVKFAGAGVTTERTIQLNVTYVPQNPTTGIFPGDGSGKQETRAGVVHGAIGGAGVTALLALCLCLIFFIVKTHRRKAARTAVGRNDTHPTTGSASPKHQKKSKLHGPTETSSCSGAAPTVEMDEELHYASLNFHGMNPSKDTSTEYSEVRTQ

[3] = target: T3, ΔE2 version of human CD33 (CD33^ΔE2) expressed on cells (human, UniProt P20138 1-364); experiment: flow cytometry on REH cells expressing CD33^ΔE2
T3 construct: Expressed on engineered REH sublines; also called CD33ΔE2 isoform
Description: FIG. 6 illustrates flow cytometry binding assay characterization of CD33^ΔE2 -specific CD33 antibodies. […] Antibodies specific for CD33^ΔE2 have not previously been described reliably in the literature. The herein-described CD33^ΔE2 specific antibodies will be useful, including for determining expression profiles of this isoform across healthy and diseased individuals. REH=human CD33^neg lymphoid cells.

[4] = target: T2, human full-length CD33 (CD33^FL) …; experiment: flow cytometry on REH cells expressing CD33^FL
[5] = target: T2, human full-length CD33 (CD33^FL) …; experiment: flow cytometry on REH subline expressing CD33^FL
[6] = target: T3, ΔE2 version of human CD33 (CD33^ΔE2) …; experiment: flow cytometry on REH subline expressing CD33^ΔE2
[7] = target: T4, extracellular domain of CD33^ΔE2 with a 6-histidine-avidin tag (hsCD33_ΔE2-His-Avi) (human); experiment: Biacore SPR, purified antibody and corresponding soluble ectodomain
T4 construct: The Biacore text says only 'the corresponding soluble ectodomains'; also called soluble CD33^ΔE2 ectodomain; MDT000239
T4 chain: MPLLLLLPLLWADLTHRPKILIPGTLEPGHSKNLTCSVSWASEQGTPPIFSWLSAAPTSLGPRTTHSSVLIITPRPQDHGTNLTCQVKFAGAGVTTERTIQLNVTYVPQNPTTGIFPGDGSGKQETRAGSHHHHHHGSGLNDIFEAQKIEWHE
Description: as §1

[8] = target: T3, ΔE2 version of human CD33 (CD33^ΔE2) …; experiment: flow cytometry on engineered REH cells
[9] = target: T1, extracellular domain of CD33^FL with a …; experiment: Biacore SPR, value quoted from FIG. 4C
Description: as §1

B1: anti-CD33 antibody 8F5 (antibody, mouse IgG2a, kappa, V domains shown)
VH: EVKLVESGGGLVQPGGSLKLSCAASGFTFSDFYMYWVRQTPEKRLEWVAFISNAGVTTYYPDTVEGRFTISRDNAKNTLYLQMSRLMSEDTAMYYCTKSDYDGAWFPYWGQGTLVTVSA
VL: DIVMSQSPSSLPVSVGEKVTLSCKSSQSLLYSRNQYNFLAWYQQRPGQSPKLLIYWASTRESGVPDRFTGSGSGTDFTLTISSVKAEDLAVYYCQQYYSYPYTFGGGTKLEIKR
notes: Mouse IgG2a
- Kd [1]: 8 nM

B2: anti-CD33 antibody 5E10.7 (antibody, V domains shown)
VH: QVQLQQPGAEFVKPGASVKLSCKASGYTFTSYWMQWVKQRPGQGLEWIGEIDSSDSYTNYNQKFKGMATLTVDRSSSTAYMQLSSLTSEDSAVYYCARSRPYDWFPYWGQGTLVTVST
VL: DIKMTQSPSSIYASLGERVTITCKASQDIKSYLSWYQQKPRKSPKTLIYYATTLADGVPSRFSGSGSGQDFSLTISSLESDDTATYYCLHHSESPWTFGGGTKLEIKR
notes: Mouse IgG1
- binding result [2]: binds
- binding result [3]: binds

B3: anti-CD33 antibody 1H7 (antibody, V domains shown)
VH: QVQLQQSGAELVKPGASVKISCKASGYAFSNYWMNWVKQRPGKGLEWIGQINPGDGDTNYNGKFKGKATLTADKSSSTAYMQLSSLTSEDSAVYFCAREDRDYFDYWGQGTTLTVSS
VL: DIQMTQTTSSLSASLGDRVTISCRASQDINYYLNWYQQKPDGTVKLLIYYSSRLHSGVPSRFSGSGSGTDFSLTISNLEQEDIATYFCQQDDALPYTFGGGTKLEIKR
notes: Raised in mice; The entries include a secretion leader; also called CD33PAN antibody
- binding result [4]: binds
- binding result [3]: binds

B4: anti-CD33 antibody 2D5 (antibody, V domains shown)
VH: QVQLQQSGAELVRPGASVTLSCKASGYTFTDYDMHWVKQTPVHGLEWIGAIDPETGGTAYNQNFKGKAILTVDKSSRIAYMELRSLTSEDSAVFYCTSDYDYFGVWGTGTTVTVSS
VL: DIVMTQSQKFMSTSVGDRVSVTCKASQNVGTNVVWYHKKPGQSPKGLIYSASDRYSGVPDRFTGSGSGTDFTLTINNVQSEDLAEYFCQQYNIYPYTFGGGTKLEIKR
notes: the antibody was raised in mice
- binding result [5]: binds
- binding result [6]: binds

B5: anti-CD33 antibody 12B12 (antibody, V domains shown)
VH: EVQLQQSGTVLARPGASVKMSCKASGYTFTTYWMHWIKQSPGQGLEWIGAIYPGNSDTSYNQKFKGKAKLTAVTSASTAYMELSSLTNEDSAVYYCEIYDGYHFIYWGQGTTLTVSS
VL: DIVMTQAAFSNPVTLGTSASISCRSSQSLLHSNGITYLYWYLQKPGQSPQLLIYQMSNLASGVPDRFSSSGSGTDFTLRISRVEAEDVGVYYCAQNLELPPTFGGGTKLEIKR
notes: Mouse IgG2b
- Kd [7]: 8 nM

B6: anti-CD33 antibody 11D5 (antibody, V domains shown)
VH: EVQFQQSETVLARPGTSVKLSCKASGYTFTSYWMHWLKQRPGQGLEWIGAIYCGNSDTSYNQKFKGKAKLTAVTSATTAYMELSSLTNEDSAVYYCKIYDGYHFDYWGQGTTLTVSS
VL: B5 VL with S26N, Q27K
notes: Mouse IgG1
- binding result [8]: binds

B7: anti-CD33 antibody 5D12 (antibody, V domains shown)
VH: QVQLQQSGAEVVKPGASVKISCRASGYAFSNYWMNWVKQRPGKGLEWIGQIYPGNFNTDYNGQFKGKATLTVDKSSNTAYMQLSSLTSEDSAVYFCARFFDFGAYFTLDYWGQGTSVTVSS
VL: B2 VL with T22N, R41W, F71Y, S92G, G100E
notes: Mouse IgG2a
- Kd [9]: 0.122 nM
- Kd [1]: 0.112 nM

B8: anti-CD33 antibody 11D11 (antibody, V domains shown)
VH: EVNLVESGGGLVQSGRSLRLSCATSGFTFSDFYMEWVRQAPGKGLEWIAASRNKANDYTTEYKASVKGRFIVSRDTSQSILYLQMNALRAEDTAIYYCTRDTGPMDYWGQGTSVTVSS
VL: B3 VL with N30S, Y31N, S51T, F71Y, D91G, D92S, A93T, Y96P
notes: Mouse IgG1
- binding result [3]: binds

B9: anti-CD33 antibody 7E7 (antibody, V domains shown)
VH: QVTLKESGPGILQPSQTLSLTCSFSGFSLNSYGMGIGWIRQPSGKGLEWLAHIWWDDNKYYKPDLKSRLTVSKDTSKNQVFLKIANVDTTDTATYFCARDGGYSLFAYWGQGTLVTVSV
VL: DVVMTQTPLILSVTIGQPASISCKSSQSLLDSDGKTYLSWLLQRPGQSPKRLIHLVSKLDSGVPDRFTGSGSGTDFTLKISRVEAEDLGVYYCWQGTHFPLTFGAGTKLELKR
notes: Mouse IgG1
- binding result [4]: no binding
- binding result [3]: binds
